Tested on: PPIs identified as affected by the SH3 domain deletions
Assay: Liquid DHFR-PCA low-throughput validation of PPIs affected by SH3 deletion (Fig. S1D-E)
Type: cell-based, Saccharomyces cerevisiae
Conditions: label = prey, liquid DHFR-PCA, prey _1 = lost, _2 = gained in screen
Summary of the method: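 Growth at 30 °C was tracked by OD each 15 min over 72 h in agar-free PCA selection medium, starting at 0.1 OD. Cells were diploids selected after mating, first cultured 48 h with NAT and HPH in synthetic complete MSG medium, pH 6.0.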

Molecule	Ratio (Deletedscore / WTscore) (bait MYO3)	Ratio (Deletedscore / WTscore) (bait MYO5)	Ratio (Deletedscore / WTscore) (bait LSB3)	Ratio (Deletedscore / WTscore) (bait ABP1)
YJL020C_1 (protein, UniProt P47068 1-1157, looked up) Myosin tail …: MSEPEVPFKVVAQFPYKSDYEDDLNFEKDQEIIVTSVEDAEWYFGEYQDSNGDVIEGIFPKSFVAVQGSEVGKEAESSPNTGSTEQRTIQPEVEQKDLPEPISPETKKETLSGPVPVPAATVPVPAATVPVPAATAVSAQVQHDSSSGNGERKVPMDSPKLKARLSMFNQDITEQVPLPKSTHLDLENIPVKKTIVADAPKYYVPPGIPTNDTSNLERKKSLKENEKKIVPEPINRAQVESGRIETENDQLKKDLPQMSLKERIALLQEQQRLQAAREEELLRKKAKLEQEHERSAVNKNEPYTETEEAEENEKTEPKPEFTPETEHNEEPQMELLAHKEITKTSREADEGTNDIEKEQFLDEYTKENQKVEESQADEARGENVAEESEIGYGHEDREGDNDEEKEEEDSEENRRAALRERMAKLSGASRFGAPVGFNPFGMASGVGNKPSEEPKKKQHKEKEEEEPEQLQELPRAIPVMPFVDPSSNPFFRKSNLSEKNQPTETKTLDPHATTEHEQKQEHGTHAYHNLAAVDNAHPEYSDHDSDEDTDDHEFEDANDGLRKHSMVEQAFQIGNNESENVNSGEKIYPQEPPISHRTAEVSHDIENSSQNTTGNVLPVSSPQTRVARNGSINSLTKSISGENRRKSINEYHDTVSTNSSALTETAQDISMAAPAAPVLSKVSHPEDKVPPHPVPSAPSAPPVPSAPSVPSAPPVPPAPPALSAPSVPPVPPVPPVSSAPPALSAPSIPPVPPTPPAPPAPPAPLALPKHNEVEEHVKSSAPLPPVSEEYHPMPNTAPPLPRAPPVPPATFEFDSEPTATHSHTAPSPPPHQNVTASTPSMMSTQQRVPTSVLSGAEKESRTLPPHVPSLTNRPVDSFHESDTTPKVASIRRSTTHDVGEISNNVKIEFNAQERWWINKSAPPAISNLKLNFLMEIDDHFISKRLHQKWVVRDFYFLFENYSQLRFSLTFNSTSPEKTVTTLQERFPSPVETQSARILDEYAQRFNAKVVEKSHSLINSHIGAKNFVSQIVSEFKDEVIQPIGARTFGATILSYKPEEGIEQLMKSLQKIKPGDILVIRKAKFEAHKKIGKNEIINVGMDSAAPYSSVVTDYDFTKNKFRVIENHEGKIIQNSYKLSHMKSGKLKVFRIVARGYVGW	0.4075	0.4895	–	–
YLR436C_1 (protein, UniProt Q06673 1-1274, looked up) Protein ECM30: MGNTDSKSSSILLNHCIALVRPEDADASSPSRTSSPSPSLSVDADPLSLNLSIFKLDSGPDVEALFSDKPNVPLDTVFNDFYLDFISVDVQDFSINSSFKKILHIISSLNPPNFNNLIVFLSLYIILSANSLPASRTGLHSSRLINAIKTLSILIPIYFDRVKSSTQDHYDVFWATQHEIEGLPLQNIPLGERLLLAILKLAFQDNFTTAVTAHPSELWEIGILTNSNKYRSLLNMHHQWHLFANRLLLLRLLAALFSSDLYTSGGKQDINMFLVYWCTQMPKDKSIQFTSSLLNCTMRFILNNNKDFQSLKANFFSSDATASNWQTLYFQFVQSCLHVLNLSMSYKAQDNVITIFLTQLQREYDLKLILSSFIKIFKYPIDLAIEQESNIFNFTNNKHIDASRRRAVSTSSHDNSSSSHASLPSSSSAAYHTKPQTKPQLPEIHPLLIPMTILMTNLIDCNKCFQNYFADKFASRFIIFSIYYLKYYDYSSLSSSSSTTRSNSSTTSNGTSNDTSNERSIVELNENSVSQILLPLLNHLLLILTSKKLVLFKMLQTFNLNYYTNNLPNFYKLSNINGDINNLTFRDFTVIQLSNLILDNIKFNLQPNPIFYELIYNLLPINDEILTSSHKNDDSHDDLILLSAKKKSASPSAATSSHTSSSKLSYNAAMSLLYVLSKSSNKVYLTTYATPVFKTKDIPYMISPGFKMDLLALLLRSITIFFTLYFDDAENLLFAMVRHQSITHQINDSINSISKALDMNPNLNSHIMTLKQMGFNRKVQWKDFYQFEEITDLPQVNLYSSANQQHQNQQQGQNDNRGQNQNEDPGQENESPTPYLLFNPASLENETPGTVKHFSSTNHDKNYQVIAFIDFKSDSNLNLQHQLEYWPHRPQWPTPLTFTHKCKNPKYENFNEVWSGTVYLQILLRVIKQILSKVPEIPRIKSVQYFETLSKLSALRSDILTTIHPRLPLDVRRLTTFQPLSMHTNDKLLMWFHIATWANIFTQTSFKYEETFSHELRQFESLLDISIDECEGNTISKPTTDRLGYIRRSRGQSSVSLERTISAGSGVSTPTMALNRTKSNGSGNLMNYFFQNTAQNHFQHLRSSSSSSSITLEKTTSNSSSIRTRPNSHHVAPETNNNNSTNGNSNNSSNGGFSFFKWKWGGNNSNGGSDDTKASQRDPNVSTSIITDNLNSYMFEEEISPGVVNNIIENNIWVGTDIRLFKIANFRKESFSFLEMTSSFFKKFKFINSDNDNYNNNEFDDNTQLRYTSRGLYR	–	–	0.9725	–
YNL106C_1 (protein, UniProt P50942 1-1183, looked up) Polyphosphatidylinositol …: MKILLSKQQTRKIAIVSETHGLVFRPINSKNSRRSTCAVELVPKAELNGNGFRRLSNHEIYGFIGLIEIEGLMFIATITGKSKVAQPIPNKTVNKIYAVDFFCLNNSKWDFMDIDSSGYPIVTNDGDFAISSPPSISTHSSRSSLRSSSSRSLNAQEQAPKHPCHELRKLLSNGSFYYSTDFDLTCTLQKRGFTEHSLSFDDFDREFMWNSFLMDEIITYRDRLDVTAKELLDQRGFLTTVIRGFAETIFSYINRLKVGLTIISRQSWKRAGTRFNARGIDDDGHVANFVETEMIMYSSQYCYAFTQIRGSLPIFWEQDTSLISPKIQITRSVEATQPTFDEHFIRLFKKYGPVHIINLLSTKSSEIQLSRRYKEQLKNSEKMKIGRDVFLTSFDFHRETSQDGFAAASRIIPKIRNTILDAGYFSYDVKEGRLISEQDGVFRTNCLDCLDRTNLIQQTISLAVFKLFLEDFRLVKPSSFIDDNEFVQKVNALWADNGDQISQIYTGTNALKSSYSRKGKMSFSGALSDATKSVSRMYINNFVDKGKQQNIDTLLGKLPHQQVVELYDPICEYVNERLLESEEKFTTHSNINLFVGTFNVNGNSRRADLSKWLFPIGDKFKPDVVVLGLQEVIELTAGSILNADYTKSSFWETMVTDCLNQYEEKYLLLRVEQMSSLLILFFARSDRAYNIKEVGGSTKKTGFGGITGNKGAVAIRFDYGATSFCFVNTHLSAGASNIDERRNDYNNIYRNITFPRSKTIPHHDSLFWLGDLNYRITLTNDEVRRELRAQKDGYIDRLLQYDQLTQEINEGVVFQGFKEPTLQFRPTYKYDYGTDNYDTSEKARTPSWTDRIIYKGENLHPLAYSDAPLKISDHKPVYAAYRANVKFVDEKEKLNLVEKLYAEYKNTHPEALTTGPDELSHARMEKQKESIPLDATVQSAGIKLIDLDDTSSCVSPLLSGPSPQPSVVGPGGLSNVSPDKSKLNVLPPPPPTSRHNKEPSSKLLSPTKEISIVSVSPRKGESNLPALERHSTPKPLPPVPALSLSKPVSLQKSSSELQHAKETIDNGKIVPRPCPPIRRKSSTAPDEISTSTKNSGVSTTEDPEPAKASTKPEKPPVVKKPHYLSVAANKLNTSQEHSIKVSPSNSKSEEELPCKKKSKPKVPAKNPELEKLSVHPLKPCDPN	–	–	0.7587	–
YMR192W_1 (protein, UniProt Q04322 1-720, looked up) Probable GTPase-activating …: MNSNEDIHEERIEVPRTPHQTQPEKDSDRIALRDEISVPEGDEKAYSDEKVEMATTNASSNFGSNESAKDGESIGAFSNPHEALMQSKLREESQSKTILPSDDLSQQLETEESKVEEALKRITSPPLPPRADCIEESASALKSSLPPVLAGNKNDQAPLDRPQLPPRQVVNAETLHLKAPHGNATPSKSPTSAVGNSSSSTPPTLPPRRIEDPLDLAAQKHFLASTFKRNMLFYKSEDNSIKCDLDKNILNLKEDSKKINNNEIPEEVSSFWLKVIGDYQNILINDIETLHFQLSRGIPAAYRLVVWQLVSYAKSKSFDPIYETYLTEMAPFDVQEFENQLKMMDEVPSEYVKRISNVLKAYLLFDPECEFSTDIAYIINMILDVCEEEANAFGLLVRLMKVYGLRLLFLPSASEIDILCYKFDRLVEEFYPEIHNHMVEKGVRSSMFLPGFFTTLFQKKLPTEIQPRIGDMVFLEGIDSIMRILATLLSNSRDHLLKMGFDDMLELLKSGLLDAYIKQNDGTRGDTLLSNECMDKLLQDSMMKVAITPKTMKKYSSEYEEIHRLDNEKEVQYKSITEKNLHLQKHVRKLENDYTSLNREHVTIANELVKNRLNIESVLNENNGYKLQILDLKKKLDSEKKKQVLGVYVPNDLKKDLEETMKKNTQVMDENLKLQDRISELERLIEEIKTANKNGTLFEYSNSKNNPLGAGWSGFKKVFK	–	–	0.5637	–
YNL287W_2 (protein, UniProt P32074 1-935, looked up) Coatomer subunit gamma: MSAHTYKKFENSTSGDLPDKMTIYQDCMNTFNESPVNSKRCRLLISRLLRLLAQGETFPQNEATALFFSISKLFQHQNDPLRQAVYLAIKELSGISEDVLMATSSIMKDVQNGSDLIKPDAIRSLTYVLDESTAFSAERLLKSAVVSRHPSISSAALCTSYHLLPISEVTIRRFTNETQEAVLDLKQFPNQHGNSEYYPNSTYISQYHALGLLYQLKKTDKMALLKLVRHFSENNSMKNQLAKVELVKIVNDLIYRDPQLFSQFRPLLSDWLSNKFESVQLETAKLITSFATRNSRLVAPELYAAAISALQSLLTVPRVSSRFAALRILNRISMVSPEKIVVCNPELESLINDSNRNISTYAITTLLKTGTSKNISSLISTITNFIHDVSDDFKIIIIDAVRTLSLNFPQEWKSILNFLIDVLKNSEGGFKFKNSIVEALIDIVSFVPQSKELALENLCDFIEDCEFNEILVRILHLLGKEGPSAPNPSLYVRHIYNRVVLENSIIRSAAVVALSKFALTKNDPTLYESIISLLKRIANDKDDEVRDRATIALEFIDSARNKDDVIAQNLIESKYFYDIPSLESKLSSYISSNTDSFATAFDVNQVRKFTEDEMKAINLKRKQEQIFNQKSETTLDTTPEAESVPEKRADANSFAGPNLDDHQEDLLATKYADELLSIEQIKPFGQLVNSSRAISLTEPEAEFVVRGVKHLFKDNVVLQFNITNTLTDIALDNVSVVCTPEISDEAELEELFTLQVDRLLPSEEAACYVAFKKLDEIVMEGFLNNLTFTTKEINPDTNEPFDGDEGFQDEYEIDSIFLNAGDYVKSSFTGNFSATFDELPCEEVAVFNIQEDLSIQEVVDKIILNSSCLPVESTQFAPSDSNSHTLKLFGKSALTGSKVALQIKMIKSSKGLALKVHGKGEDSLLCSDLVNGLMQ	–	–	1.751	1.101

— PMC7954794, “Protein context shapes the specificity of SH3 domain-mediated interactions in vivo” (Nature Communications, 2021)
